Data from PMC3161976, “Transportin 3 Promotes a Nuclear Maturation Step Required for Efficient HIV-1 Integration” (PLoS Pathogens, 2011).

B1: GST-Tnp3 DC825 deletion mutant (domain or fragment)
chain: MEGAKPTLQLVYQAVQALYHDPDPSGKERASFWLGELQRSVHAWEISDQLLQIRQDVESCYFAAQTMKMKIQTSFYELPTDSHASLRDSLLTHIQNLKDLSPVIVTQLALAIADLALQMPSWKGCVQTLVEKYSNDVTSLPFLLEILTVLPEEVHSRSLRIGANRRTEIIEDLAFYSSTVVSLLMTCVEKAGTDEKMLMKVFRCLGSWFNLGVLDSNFMANNKLLALLFEVLQQDKTSSNLHEAASDCVCSALYAIENVETNLPLAMQLFQGVLTLETAYHMAVAREDLDKVLNYCRIFTELCETFLEKIVCTPGQGLGDLRTLELLLICAGHPQYEVVEISFNFWYRLGEHLYKTNDEVIHGIFKAYIQRLLHALARHCQLEPDHEGVPEETDDFGEFRMRVSDLVKDLIFLIGSMECFAQLYSTLKEGNPPWEVTEAVLFIMAAIAKSVDPENNPTLVEVLEGVVRLPETVHTAVRYTSIELVGEMSEVVDRNPQFLDPVLGYLMKGLCEKPLASAAAKAIHNICSVCRDHMAQHFNGLLEIARSLDSFLLSPEAAVGLLKGTALVLARLPLDKITECLSELCSVQVMALKKLLSQEPSNGISSDPTVFLDRLAVIFRHTNPIVENGQTHPCQKVIQEIWPVLSETLNKHRADNRIVERCCRCLRFAVRCVGKGSAALLQPLVTQMVNVYHVHQHSCFLYLGSILVDEYGMEEGCRQGLLDMLQALCIPTFQLLEQQNGLQNHPDTVDDLFRLATRFIQRSPVTLLRSQVVIPILQWAIASTTLDHRDANCSVMRFLRDLIHTGVANDHEEDFELRKELIGQV
notes: Transportin 3 (Tnp3), human, lacking the last C-terminal 98 residues; made by PCR from pGST-TRN-SR2 with the Tnp3 forward primer (from the start ATG) and the DC825 reverse primer, cloned into pGEX-2T; also called ΔC; C-term deleted Tnp3; source: E. coli BL21(DE3), purified (glutathione-Sepharose beads, Superdex 200 gel filtration); not shown: GST, N-terminal, kept
B2: GST-Tnp3 (Transportin 3), full length (natural protein)
chain: MEGAKPTLQLVYQAVQALYHDPDPSGKERASFWLGELQRSVHAWEISDQLLQIRQDVESCYFAAQTMKMKIQTSFYELPTDSHASLRDSLLTHIQNLKDLSPVIVTQLALAIADLALQMPSWKGCVQTLVEKYSNDVTSLPFLLEILTVLPEEVHSRSLRIGANRRTEIIEDLAFYSSTVVSLLMTCVEKAGTDEKMLMKVFRCLGSWFNLGVLDSNFMANNKLLALLFEVLQQDKTSSNLHEAASDCVCSALYAIENVETNLPLAMQLFQGVLTLETAYHMAVAREDLDKVLNYCRIFTELCETFLEKIVCTPGQGLGDLRTLELLLICAGHPQYEVVEISFNFWYRLGEHLYKTNDEVIHGIFKAYIQRLLHALARHCQLEPDHEGVPEETDDFGEFRMRVSDLVKDLIFLIGSMECFAQLYSTLKEGNPPWEVTEAVLFIMAAIAKSVDPENNPTLVEVLEGVVRLPETVHTAVRYTSIELVGEMSEVVDRNPQFLDPVLGYLMKGLCEKPLASAAAKAIHNICSVCRDHMAQHFNGLLEIARSLDSFLLSPEAAVGLLKGTALVLARLPLDKITECLSELCSVQVMALKKLLSQEPSNGISSDPTVFLDRLAVIFRHTNPIVENGQTHPCQKVIQEIWPVLSETLNKHRADNRIVERCCRCLRFAVRCVGKGSAALLQPLVTQMVNVYHVHQHSCFLYLGSILVDEYGMEEGCRQGLLDMLQALCIPTFQLLEQQNGLQNHPDTVDDLFRLATRFIQRSPVTLLRSQVVIPILQWAIASTTLDHRDANCSVMRFLRDLIHTGVANDHEEDFELRKELIGQVMNQLGQQLVSQLLHTCCFCLPPYTLPDVAEVLWEIMQVDRPTFCRWLENSLKGLPKETTVGAVTVTHKQLTDFHKQVTSAEECKQVCWALRDFTRLFR
notes: also called GST-Tnp3 (FL); TRN-SR2; source: E. coli BL21(DE3), purified (glutathione-Sepharose beads, dialysis); not shown: GST, N-terminal, kept
B3: GST-Tnp3 DC880 deletion mutant (domain or fragment)
chain: MEGAKPTLQLVYQAVQALYHDPDPSGKERASFWLGELQRSVHAWEISDQLLQIRQDVESCYFAAQTMKMKIQTSFYELPTDSHASLRDSLLTHIQNLKDLSPVIVTQLALAIADLALQMPSWKGCVQTLVEKYSNDVTSLPFLLEILTVLPEEVHSRSLRIGANRRTEIIEDLAFYSSTVVSLLMTCVEKAGTDEKMLMKVFRCLGSWFNLGVLDSNFMANNKLLALLFEVLQQDKTSSNLHEAASDCVCSALYAIENVETNLPLAMQLFQGVLTLETAYHMAVAREDLDKVLNYCRIFTELCETFLEKIVCTPGQGLGDLRTLELLLICAGHPQYEVVEISFNFWYRLGEHLYKTNDEVIHGIFKAYIQRLLHALARHCQLEPDHEGVPEETDDFGEFRMRVSDLVKDLIFLIGSMECFAQLYSTLKEGNPPWEVTEAVLFIMAAIAKSVDPENNPTLVEVLEGVVRLPETVHTAVRYTSIELVGEMSEVVDRNPQFLDPVLGYLMKGLCEKPLASAAAKAIHNICSVCRDHMAQHFNGLLEIARSLDSFLLSPEAAVGLLKGTALVLARLPLDKITECLSELCSVQVMALKKLLSQEPSNGISSDPTVFLDRLAVIFRHTNPIVENGQTHPCQKVIQEIWPVLSETLNKHRADNRIVERCCRCLRFAVRCVGKGSAALLQPLVTQMVNVYHVHQHSCFLYLGSILVDEYGMEEGCRQGLLDMLQALCIPTFQLLEQQNGLQNHPDTVDDLFRLATRFIQRSPVTLLRSQVVIPILQWAIASTTLDHRDANCSVMRFLRDLIHTGVANDHEEDFELRKELIGQVMNQLGQQLVSQLLHTCCFCLPPYTLPDVAEVLWEIMQVDRPTFCRWLENSLKGLP
notes: Transportin 3 (Tnp3), human, C-terminal deletion mutant DC880; made by PCR from pGST-TRN-SR2 with the Tnp3 forward primer (from the start ATG) and the DC880 reverse primer, cloned into pGEX-2T; source: E. coli BL21(DE3), purified (glutathione-Sepharose beads, Superdex 200 gel filtration); not shown: GST, N-terminal, kept

target: RanQ69L-GTP (UniProt P62826 1-216, Q69L); assay: pull-down; GST-Tnp3 or its deletion mutants held on glutathione-Sepharose 4B beads, with RanQ69L-GTP and G2 tRNA, equimolar tRNA and Tnp3; binding buffer 50 mM Hepes pH 7.3, 200 mM NaCl, 2 mM Mg(Ac)2, 10 µM GTP; 4°C; 15% SDS-PAGE and silver staining; settings: both partners purified

Row | Binder | binding result
1 | B1 | binds
2 | B2 | binds
3 | B3 | binds
